Test results reported in publication PMC10148881, “Recognition of an Ala-rich C-degron by the E3 ligase Pirh2” (Nature Communications, 2023).

T1: Ala6/C-degron peptide (sequence: …)
T1 chain: YKTSAAAAAA


Legend:
[1] = biological target: Pirh2 D94A (human) (UniProt Q96PM5); experiment: ITC; peptides (0.6–1.0 mM) titrated into the cell with 180–220 μM protein at 16 °C; 20 mM Tris-HCl pH 7.5, 150 mM NaCl, 10 μM Zn2+; one-site binding model
[2] = biological target: Pirh2 Q99A (human) (UniProt Q96PM5); experiment: as above
[3] = biological target: Pirh2 R54A (human) (UniProt Q96PM5); experiment: as above
[4] = biological target: Pirh2 with Ala159 substituted with aspartic acid (human) (UniProt Q96PM5); experiment: as above
[5] = biological target: Pirh2 with Ser155 substituted with aspartic acid (human) (UniProt Q96PM5); experiment: as above
[6] = biological target: T1, Ala6/C-degron peptide (sequence: …); experiment: ITC; conditions: chain shown with the change

Binder | Kd [6] | further results
YKTSAAAAAA [Ala6/C-degron peptide (sequence: …)] | – | fold decrease in binding affinity against wild-type Pirh2 [1]: > 6 fold; fold decrease in binding affinity against wild-type Pirh2 [2]: > 6 fold; fold decrease in binding affinity against wild-type Pirh2 [3]: > 6 fold; fold decrease in binding affinity against wild-type Pirh2 [4]: 14 fold; fold decrease in binding affinity against wild-type Pirh2 [5]: 9 fold
WT Pirh2 D94A (protein) MAATAREDGASGQERGQRGCEHYDRGCLLKAPCCDKLYTCRLCHDNNEDHQLDRFKVKEVQCINCEKIQHAQQTCEECSTLFGEYYCDICHLFAKDKKQYHCENCGICRIGPKEDFFHCLKCNLCLAMNLQGRHKCIENVSRQNCPICLEDIHTSRVVAHVLPCGHLLHRTCYEEMLKEGYRCPLCMHS | 3 µM | –
WT Pirh2 Q99A (protein) MAATAREDGASGQERGQRGCEHYDRGCLLKAPCCDKLYTCRLCHDNNEDHQLDRFKVKEVQCINCEKIQHAQQTCEECSTLFGEYYCDICHLFDKDKKAYHCENCGICRIGPKEDFFHCLKCNLCLAMNLQGRHKCIENVSRQNCPICLEDIHTSRVVAHVLPCGHLLHRTCYEEMLKEGYRCPLCMHS | 3.5 µM | –
WT Pirh2 A159D (protein) MAATAREDGASGQERGQRGCEHYDRGCLLKAPCCDKLYTCRLCHDNNEDHQLDRFKVKEVQCINCEKIQHAQQTCEECSTLFGEYYCDICHLFDKDKKQYHCENCGICRIGPKEDFFHCLKCNLCLAMNLQGRHKCIENVSRQNCPICLEDIHTSRVVDHVLPCGHLLHRTCYEEMLKEGYRCPLCMHS | 7.1 µM | –

Further lines, with some results ahead:

Kd [6] | Binder | further results
4.5 µM | WT Pirh2 S155D (protein) MAATAREDGASGQERGQRGCEHYDRGCLLKAPCCDKLYTCRLCHDNNEDHQLDRFKVKEVQCINCEKIQHAQQTCEECSTLFGEYYCDICHLFDKDKKQYHCENCGICRIGPKEDFFHCLKCNLCLAMNLQGRHKCIENVSRQNCPICLEDIHTDRVVAHVLPCGHLLHRTCYEEMLKEGYRCPLCMHS | –
> 100 µM | WT Pirh2 R54A (protein) MAATAREDGASGQERGQRGCEHYDRGCLLKAPCCDKLYTCRLCHDNNEDHQLDAFKVKEVQCINCEKIQHAQQTCEECSTLFGEYYCDICHLFDKDKKQYHCENCGICRIGPKEDFFHCLKCNLCLAMNLQGRHKCIENVSRQNCPICLEDIHTSRVVAHVLPCGHLLHRTCYEEMLKEGYRCPLCMHS | –
